Data as given in paper PMC3573263 (Chemical biology & drug design, 2013).
[ ]: non-standard residue; d: D form. The star is where a group is joined. Biotin = O=C1N[C@H]2[C@H](CS[C@H]2CCCCC(=O)*)N1; pY = N[C@@H](Cc1ccc(OP(=O)(O)O)cc1)C(=O)O

Biological target: YopH PTPase domain (active catalytic domain, residues 164-468), wild type (Yersinia pestis, UniProt O68720 164-468)
Assay: SPR

B1: biotinylated pTyr-EGFR peptide, biotin-LVDADEpYLIPQQG-COOH (peptide)
peptide: Biotin-LVDADE[pY]LIPQQG-OH
SMILES: CC[C@H](C)[C@H](NC(=O)[C@H](CC(C)C)NC(=O)[C@H](Cc1ccc(OP(=O)(O)O)cc1)NC(=O)[C@H](CCC(=O)O)NC(=O)[C@H](CC(=O)O)NC(=O)[C@H](C)NC(=O)[C@H](CC(=O)O)NC(=O)[C@@H](NC(=O)[C@H](CC(C)C)NC(=O)CCCC[C@@H]1SC[C@@H]2NC(=O)N[C@@H]21)C(C)C)C(=O)N1CCC[C@H]1C(=O)N[C@@H](CCC(N)=O)C(=O)N[C@@H](CCC(N)=O)C(=O)NCC(=O)O
  koff: 0.0214 s⁻¹
  kon: 34.9 M⁻¹ s⁻¹
